This experiment has as its target SARS-CoV-2 Omicron (B.1.1.529) RBD (SARS-CoV-2 Omicron B.1.1.529 (BA.1), strain).

Positions count from the first letter of the chain named.

B1: COVOX-222 (antibody, V domains shown)
VH: EVQLVESGGGLIQPGGSLRLSCAASGLTVSSNYMSWVRQAPGKGLEWVSVIYSGGSTFYADSVKGRFTISRDNSKNTLYLQMNSLGAEDTAVYYCARGEGSPGNWFDPWGQGTLVTVSS
VL: DVVMTQSPGTLSLSPGERATLSCRASQSVPSSYLAWYQQKPGQAPRLLIYGASTRATGIPDRFSGSGSGTDFTLTISRLEPEDFAVYYCQHYDTSPRFGGGTKVDIK
For B1, the binding result is listed as “binds”.

B2: BG4-25 (antibody, V domains shown)
VH: EVQLVESGGGLIQPGGSLRLSCAASGITVVRNYMTWVRQAPGKGLEWVSVIYSGGTTYYADSVKGRFTISRDNSKNTMYLQMNSLRAEDTAIYYCARDLEVVGAMDVWGQGTTVTVSS
VL: EIVLTQSPGTLSLSPGERATLSCRASQSVPSSYLAWYQQKPGQAPRLLIYGASSRATGIPDRFSGSGSGTDFTLTISRLEPEDFAVYYCQQYGSPMYTFGQGTKLEIK
B2: the binding result is given as “binds”.

B3: BD55-1962 (antibody, V domains shown)
VH: QVQLVQSGAEVKKPGSSVKVSCTASGDSFSSYAITWVRQAPGQGLEWMGRIIPILGIANYAQKFQGRVTLTADKSAGTAYMELSSLRSDDTAVYYCASGYDFHFDYWGQGTLVTVYS
VL: QSALTQPASVSGSPGQSITISCTGTSSDVGDYKYVSWYQQHAGKAPKLMIHDVSKRPSGVSSRFSGSKSGNTASLTISGLQAEDEADYYCSSYTSSSSWVFGGGTKLTVL
For the molecule B3, the binding result is reported as “binds”.

B4: BD55-387 (antibody, V domains shown)
VH: QITLKESGPTLVKPTQTLTLTCTFSGFSLSTSGVGVGWIRQPPGKALEWLALIYWDDDKRYSPALKSRLTITEDTSKNQVVLTMTNMDPVDTATYYCAHCAPAWNYFDYWGQGTLVAVSS
VL: QSVLTQPPSVSGAPGQRVTISCTGSSSNIGAGYDVHWYQQLPGTAPKLLIYRNSNRPSGVPGRFSGSKSGTSASLAITGLQAEDEADYFCQSYDSSLSGWVFGGGTKLTVL
As for B4, the binding result is on record as “binds”.

B5: COV2-2072 (antibody, V domains shown)
VH: QMQLVQSGPEVKKPGTSVKVSCKTSGFTFTSSAIQWVRQARGQRLEWIGWIVVGSGNTNYAQKFQERVTITRDMSTSTAYMELSSLRSEDTAVYYCAAPHCNRTSCYDAFDLWGQGTMVTVSS
VL: not shown
B5: the binding result is recorded as “binds”.

B6: COV2-2381 (antibody, V domains shown)
VH: B5 VH with T24A, I34V, V52A, T69S, H100Y, N102S, Y107H, L112I, M118K
VL: EVVLTQSPGTLSLSPGERATLSCRASQSVSSSYLAWYQQKPGQAPRLLIYGASSRATGIPDRFSGSGSGTDFTLTISRLEPEDFAVYHCQHFGSSSQWTFGQGTKVEIK
As to B6, the binding result was “binds”.

B7: BD-369 (antibody, V domains shown)
VH: EVQLVESGGGLVQPGGSLRLSCAASGITVSSNYMTWVRQAPGKGLEWVSLIYSGGSTYYADSVKGRFTISRDNSKNTLHLQMNSLRGEDTAVYYCARDLVAFGMDVWGQGTTVTVSS
VL: AIQLTQSPSSLSASVGDRVTITCRASQGISSYLAWYQQKPGKAPKLLIYAASTLQGGVPSRFSGSGSGTDFTLTISSLQSEDSATYYCQQLNSDTPTFGPGTKVEIK
With B7, the binding result was “binds”.

B8: BD-812 (antibody, V domains shown)
VH: EVQLVQSGAEVKKPGESLKISCQFSEYKLISFWIAWVRQRPGKGLEWMGIIYPDDSDTKYSPSSQGQVTISADKSIRTAYLQWSSLMASDTAMYYCTSGSYYGTLDFWGQGTLVTVSS
VL: DIEITQSPSSLSASVGDRVTISCRASQDIRTYVAWYQQRPGKVPRLLIYAASTLQSGVPSRFSGRGSGTDFTLTISSLQPEDVATYYCQQYNSAPLTFGGGAKVEIK
For B8, the binding result was “binds”.

B9: LY-CoV1404 (antibody, V domains shown)
VH: QITLKESGPTLVKPTQTLTLTCTFSGFSLSISGVGVGWLRQPPGKALEWLALIYWDDDKRYSPSLKSRLTISKDTSKNQVVLKMTNIDPVDTATYYCAHHSISTIFDHWGQGTLVTVSS
VL: QSALTQPASVSGSPGQSITISCTATSSDVGDYNYVSWYQQHPGKAPKLMIFEVSDRPSGISNRFSGSKSGNTASLTISGLQAEDEADYYCSSYTTSSAVFGGGTKLTVL
For B9, the binding result is reported as “binds”.

B10: BD55-3152 (antibody, V domains shown)
VH: QVQLVQSGAEVKKPGASVIVSCKASGYRFISHYIHWVRQAPGQGLEWMGKIDPSGRGTTYAQKLQGRVSVTRDTSTSSVYMALSGLRSDDTAVYYCARDRFPLSDPYVWGSPLGGLDVWGQGTTVIVSS
VL: SYDLTQPPSVSVSPGQTARITCSGDALPSQYVYWYQQRPGQAPVLVMYKDSERPPGIPERFSGSTSGTTATLTITGVQAEDEADYYCQSADASTTYHVFGGGTKVTVV
Take B10: the binding result was “binds”.

B11: S2E12 (antibody, V domains shown)
VH: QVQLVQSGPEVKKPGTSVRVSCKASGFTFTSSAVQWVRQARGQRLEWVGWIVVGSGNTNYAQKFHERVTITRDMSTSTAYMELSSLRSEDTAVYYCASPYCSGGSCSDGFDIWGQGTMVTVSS
VL: DIVLTQTPGTLSLSPGERATLSCRASQSVSSSYLAWYQQKPGQAPRLLIYGASSRATGIPDRFSGSGSGTDFTLTISRLEPEDFAVYYCQQYVGLTGWTFGQGTKVEIK
As for B11, the binding result is “binds”.

B12: BD-566 (antibody, V domains shown)
VH: QVQLVESGGGVVQPGRSLRLSCAASGFTFRSYGMHWVRQAPGKGLEWVAVISKDGSNKYYADSVKGRFTISRDNSKNTLYLQWNSLRAEDTAVYYCARALVVPGAPRYYYYGMDVWGQGTTVTVSS
VL: AIQLTQSPSSLSASVGDRVTITCRASQGISSALAWYQQRPGKAPKLLIYDASTLESGVPSRFSGSGSGTDFTLTISSLQPEDFATYYCQQFNTYPWTFGQGTKVELK
Turning to B12, the binding result is “binds”.

B13: BD-614 (antibody, V domains shown)
VH: QVQLVESGGGLVQPGGSLRLSCAASGLIVSSNYMSWVRQAPGEGLEWVSVIYSGGSTYYADSVKGRFTISRDTSKNTLYLQMNSLRAEDTAVYYCARARIYTYGPDYWGQGTLVTVSS
VL: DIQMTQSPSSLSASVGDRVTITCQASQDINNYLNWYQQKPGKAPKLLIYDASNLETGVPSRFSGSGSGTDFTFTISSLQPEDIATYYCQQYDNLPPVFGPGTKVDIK
In the case of B13, the binding result is on record as “binds”.

B14: BD-618 (antibody, V domains shown)
VH: EVQLVESGGGLVQPGGSLRLSCAVSGFIVSRNYMTWVRQAPGKGLEWVSLIYSGGSTFYTNSVKGRFTISRDNSKNTLYLQMDSLRAEDTAVYYCARGPYPRFDYWGQGTLVTVSS
VL: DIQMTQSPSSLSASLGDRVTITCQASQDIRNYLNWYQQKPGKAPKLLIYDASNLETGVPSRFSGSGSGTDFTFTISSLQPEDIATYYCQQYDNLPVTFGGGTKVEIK
Turning to B14, the binding result was “binds”.

B15: BD-836 (antibody, V domains shown)
VH: QVQLVQSGPEVKKPGTSVRVSCKASGFTFSTSAVQWVRQARGQRLEWIGWIAVGSGKTDYLQKFQERVTMTRDESTNTAYMQLSSLRSEDTAVYYCAAPHCSGGTCYDGFDIWGQGTLVTVSS
VL: EIVLTQSPGTLSLSPGERATLSCRASQSVRSGYFAWYQQRPGRAPRLLIYGASSRATAIPDRFSGSGSGTDFTLTINRLEPEDFAVYYCQQYGTSPWTFGQGTKVEIK
As for B15, the binding result is reported as “binds”.

B16: BD55-1706 (antibody, V domains shown)
VH: QVQLQESGPGLLKPSETLSLTCTVSGGSINSYYWNWIRQSPRKGLEWIGYIFFSGSTNYNPSLKSRVTISLDRSKNQFSVHLRSVTAADTAVYYCARGDSKTGYDLELFDYWGHGTLVTVSS
VL: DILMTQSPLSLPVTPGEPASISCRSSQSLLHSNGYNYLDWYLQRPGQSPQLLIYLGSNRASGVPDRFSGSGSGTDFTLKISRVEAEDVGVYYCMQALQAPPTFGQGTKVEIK
B16: the binding result was “binds”.

B17: BD55-5386 (antibody, V domains shown)
VH: QVQLLQSGAEVKKPGSSVTVSCKASGGTFTNSAINWVRQAPGQGLEWIGGIIPIIGPTSYAQKFQGRVTITADESSTTAYLDLRSLRSDDTAVYYCAKAHCGDCTPPRGYYFYYFGMDVWGQGTTVTVSS
VL: SYELTQPPSVSVSPGQTARITCSGDALPKQYSYWYQQRPGQAPVLLIYKDNERPSGIPERFSGSSSGTTVTLTISGVQAEDEADYYCQSADASSTYVVFGGGTKLTVL
As to B17, the binding result is given as “binds”.

B18: BD-804 (antibody, V domains shown)
VH: EVQLVESGGGLVKPGGSLRLSCAASGFTFSNYDMNWVRQAPGKGLEWVSSISSSSTYTHYADSVKGRFTISRDNAKNSLYLQMNSLRAEDTAVYYCARDRAYRLGELSSLWGDDAFDIWGQGTMVTVSS
VL: AVWMTQSPSLLSASTGDRVTVSCRMSQDISSYLAWYQQKPGKAPELLIYAAFTLQSGVPSRFSGSGSGTEFTLTISSLQSEDFATYYCQQYYSFPHTFGQGTKLERR
With B18, the binding result was “binds”.

B19: BD55-5293 (antibody, V domains shown)
VH: EVQLVQSGAEVKKPGESLKISCKTSGYSFISNWIGWVRQMPGKGLEWMGIIYPGDSDTRYSPSFQGQVTISVDKSISTAYLQWTSLKASDTAMYFCTRRGDYGEFGGFDGDWGQGTLVTVTS
VL: DIQMTQSSSSLSASVGDRVTITCRASQSTGRYLNWYQQKAGKAPKLVIYAVSSLQSGVPSRFSGSGSGTEFTLTINSLQPEDFATYYCQQTYSIPFTFGPGTKVDLK
Regarding B19, the binding result is “binds”.

B20: BD-932 (antibody, V domains shown)
VH: EVQLVESGGALVHPGRSLRLSCTASGFTFEDYAMHWVRQAPGKGLEWVSGVSWNSGTIGYADSVKGRFIISRDNAKNSLYLQMLSLRVEDTAFYYCAKHGGLLDTSLDQYYFDYWGQGTLVTVSS
VL: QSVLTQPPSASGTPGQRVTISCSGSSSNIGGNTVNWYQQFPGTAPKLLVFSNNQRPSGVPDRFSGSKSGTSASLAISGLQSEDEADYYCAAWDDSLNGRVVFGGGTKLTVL
For the molecule B20, the binding result was “binds”.

B21: BD55-3637 (antibody, V domains shown)
VH: QVQLVESGGGVVQPGRSLRLSCAASGFTFSTYGMHWVRQAPGKGLQWVAFISDGGNKKYFADSVKGRFTISRDNSKNTLYLQMSSLRTEDTAVYYCAKERYCAGGDCSNPFFDYWGQGTLVTVSS
VL: DIQVTQSPSSLSASVGDRVTITCRASQSISSSLNWYQHKPGNAPKLLIYAASSLQSGVPSRFSGSGSGTDFILTISSLQPEDFATYYCQQSHSFPRTFGQGTKVEFR
Regarding B21, the binding result is on record as “binds”.

B22: BD55-1104 (antibody, V domains shown)
VH: EVQLVQSGAEVKKPGESLKISCKGSGYSFTTYWTGWVRQVPGKGLEWMGLIYPRDSDARYTPSFEGHVTISADNSINTAYLHWSSLKASDTAIYYCVSAGDTGWRGHADYWGQGTLVTVSS
VL: DIQMTQSPSSLSASVGDRVTITCRASLDIRNYLVWFQQKPGTAPKSLIYEASTLQSGVPSRFSGSGSGTDFTLTISSLRPEDFATYYCQQYNTWPFTFGGGTKVEIK
Regarding B22, the binding result is “binds”.

B23: BD-744 (antibody, V domains shown)
VH: EVQLVESGGGLVQPGRSLRLSCAASGFTFDDYAMHWVRQAPGKGLEWVSGASWNSGTIGYADSVKGRFIIIRDNAKNSLYLQMNSLRSEDTASYYCAKDFSRDGDAFDIWGQGTMVTVSS
VL: SYVLPQPPSVSVAPGKTARITCGGNNIEHKSVHWYQQKPRQAPVVVMYYDSDRPSGIPERFSGSNSGNTATLIISRVEAGDEAEYYCQVWDRSSDQPVFGGGTKLTVL
For the molecule B23, the binding result is “binds”.

For the origin of these results see paper PMC8866119 (Nature, 2021).
